The target in the assay is T1, GST-Cdc14 (S. cerevisiae, UniProt Q00684 1-551).
T1 sequence (looked up): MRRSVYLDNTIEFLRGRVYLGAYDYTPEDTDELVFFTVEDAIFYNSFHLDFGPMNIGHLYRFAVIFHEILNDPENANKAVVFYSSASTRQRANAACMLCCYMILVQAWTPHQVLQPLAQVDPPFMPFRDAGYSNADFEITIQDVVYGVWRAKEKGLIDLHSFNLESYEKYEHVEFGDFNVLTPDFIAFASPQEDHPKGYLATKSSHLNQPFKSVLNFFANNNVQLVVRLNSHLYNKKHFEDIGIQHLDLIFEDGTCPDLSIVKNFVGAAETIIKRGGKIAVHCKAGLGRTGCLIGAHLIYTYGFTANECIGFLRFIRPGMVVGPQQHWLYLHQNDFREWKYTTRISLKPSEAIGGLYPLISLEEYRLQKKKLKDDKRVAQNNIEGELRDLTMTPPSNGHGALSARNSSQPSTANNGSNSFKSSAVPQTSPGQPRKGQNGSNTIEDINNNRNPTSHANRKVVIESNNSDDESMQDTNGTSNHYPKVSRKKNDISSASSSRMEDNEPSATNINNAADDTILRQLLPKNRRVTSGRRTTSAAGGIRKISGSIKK
The assay can be described thus: pull-down.

We go through 1 molecule from article PMC4039371 (Molecular Systems Biology, 2013).

B1: recombinant Ubc9 protein (enzyme, S. cerevisiae, UniProt P50623 1-157, looked up)
chain: MSSLCLQRLQEERKKWRKDHPFGFYAKPVKKADGSMDLQKWEAGIPGKEGTNWAGGVYPITVEYPNEYPSKPPKVKFPAGFYHPNVYPSGTICLSILNEDQDWRPAITLKQIVLGVQDLLDSPNPNSPAQEPAWRSFSRNKAEYDKKVLLQAKQYSK
With B1, the binding result is recorded as “binds”.
